The source of these data is patent US20200405832A1 (MINERVA BIOTECHNOLOGIES, published 2020).

In assay [1] the target is T1, PSMGFR peptide (Primary Sequence of the MUC1 Growth Factor Receptor).
T1 construct: 45-residue peptide from the extracellular domain of cleaved MUC1 (MUC1*); also called MUC1* peptide; MUC1* extra cellular domain peptide
T1 peptide: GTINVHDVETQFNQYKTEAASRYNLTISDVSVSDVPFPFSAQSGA
Description: binding assay on peptide.

The next assay concerns the target T2, dimeric NME1 (human, UniProt P15531 1-152, limits assumed).
T2 construct: The construct used is not described; also called NM23-H1 dimers; dimeric NM23-H1
Description: binding assay on peptide.

A further assay deals with T3, NME7-AB (UniProt Q9Y5B8 92-376).
T3 sequence (looked up): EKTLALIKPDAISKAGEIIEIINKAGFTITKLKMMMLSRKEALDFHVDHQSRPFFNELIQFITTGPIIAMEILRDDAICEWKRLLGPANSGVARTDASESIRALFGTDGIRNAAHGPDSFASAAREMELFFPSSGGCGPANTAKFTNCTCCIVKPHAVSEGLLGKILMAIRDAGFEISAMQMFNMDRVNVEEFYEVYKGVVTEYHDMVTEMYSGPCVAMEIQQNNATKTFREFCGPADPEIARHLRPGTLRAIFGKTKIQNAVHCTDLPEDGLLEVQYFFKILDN
Kind of assay: binding assay on peptide.

The target of assay [2] is T1, PSMGFR peptide (Primary Sequence of the …). Description: binding to peptide; assay not described.

T2 sequence (P15531 whole entry): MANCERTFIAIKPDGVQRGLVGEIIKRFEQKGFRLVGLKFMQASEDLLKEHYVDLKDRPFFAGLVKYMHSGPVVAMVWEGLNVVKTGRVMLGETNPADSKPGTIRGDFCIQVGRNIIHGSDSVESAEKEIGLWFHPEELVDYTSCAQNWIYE

B1: mouse monoclonal antibody MN-E6 (antibody, V domains shown)
VH: EVKVVESGGDLVKPGGSLKLSCVVSGFTFSRYGMSWVRQTPGKRLEWVATISGGGTYIYYPDSVKGRFTISRDNAKNTLYLQMSSLKSEDTAMYHCTRDNYGRNYDYGMDYWGQGTSVTVSS
VL: QIVLTQSPAIMSASPGEEVTLTCSATSSVSYIHWFQQRPGTSPKLWIYSTSNLASGVPVRFSGSGYGTSYSLTISRMEAEDAATYYCQQRSSSPFTFGSGTKLEIK
notes: also called Min-E6
With B1, in assay [1], the binding result is recorded as “binds”.

B2: mouse monoclonal antibody MN-C2 (antibody, V domains shown)
VH: EVQLEESGGGLVKPGGSLKLSCAASGFTFSGYAMSWVRQTPEKRLEWVATISSGGTYIYYPDSVKGRFTISRDNAKNTLYLQMSSLRSEDTAMYYCARLGGDNYYEYFDVWGAGTTVTVSS
VL: DIVITQSTASLGVSLGQRATISCRASKSVSTSGYSYMHWYQQRPGQPPKLLIYLASNLESGVPARFSGSGSGTDFTLNIHPVEEEDAATYYCQHSRELPFTFGGGTKLEIKR
notes: The printed entries run a few residues into the constant region; also called Min-C2
Regarding B2, the binding result in assay [1] is reported as “binds”.

B3: PSMGFR peptide lacking the 10 C-terminal amino acids (peptide)
peptide: GTINVHDVETQFNQYKTEAASRYNLTISDVSVSDV
notes: also called C-10 PSMGFR
Turning to B3, the binding result in the assay with dimeric NME1 and with NME7-AB was “no binding” each time.

B4: mouse monoclonal antibody MN-C3 (antibody, V domains shown)
VH: QVQLQQSGPELVRPGVSVKISCKGSGYRFTDYAMNWVKQSHAKSLEWIGVISTFSGNTNFNQKFKGKATMTVDKSSSTAYMELARLTSEDSAMYYCARSDYYGPYFDYWGQGTTLTVSS
VL: DVLMTQTPLSLPVSLGDQASISCRSSQTIVHSNGNTYLEWYLQKPGQSPKLLIYKVSNRFSGVPDRFSGSGSGTDFTLKINRVEAEDLGVYYCFQGSHVPFTFGSGTKLEIK
notes: also called Min-C3
Regarding B4, the binding result in assay [2] is reported as “binds”.
